Patent publication US20220127328A1 (FATE THERAPEUTICS, published 2022)

B1: endogenous CD94 (receptor, human, UniProt Q13241 1-179, looked up)
chain: MAVFKTTLWRLISGTLGIICLSLMSTLGILLKNSFTKLSIEPAFTPGPNIELQKDSDCCSCQEKWVGYRCNCYFISSEQKTWNESRHLCASQKSSLLQLQNTDELDFMSSSQQFYWIGLSYSEEHTAWLWENGSALSQYLFPSFETFNTKNCIAYNPNGNALDESCEDKNRYICKQQLI
notes: whole, on cells
B2: endogenous DAP12 (other, human, UniProt O43914 22-113, looked up)
chain: LRPVQAQAQSDCSCSTVSPGVLAGIVMGDLVLTVLIALAVYFLGRLVPRGRGAAEAATRKQRITETESPYQELQGQRSDVYSDLNTQRPYYK
notes: whole, on cells

Biological target: T1, NKG2C (transgenic, expressed on the surface of iPSC-derived NK cells) (Homo sapiens (Human), UniProt P26717 1-231)
T1 construct: After 2A cleavage a C-terminal 2A remnant may stay on the chain; also called transgenic NKG2C
Experiment: FACS of surface NKG2C on iNK cells from the NKG2C only iPSC line; pairing inferred from surface expression
Excerpt: After the engineering step, iPSCs were sorted for the desired phenotype. […] Engineered iPSCs were differentiated into CD34+ hematopoietic progenitor cells and subsequently differentiated into CD56+ NK cells (iNK cells) using a stepwise differentiation and expansion strategy. Surface NKG2C expression was low on unmodified iNK cells (about 5-10%) as determined by FACS.

T1 sequence (P26717 whole entry): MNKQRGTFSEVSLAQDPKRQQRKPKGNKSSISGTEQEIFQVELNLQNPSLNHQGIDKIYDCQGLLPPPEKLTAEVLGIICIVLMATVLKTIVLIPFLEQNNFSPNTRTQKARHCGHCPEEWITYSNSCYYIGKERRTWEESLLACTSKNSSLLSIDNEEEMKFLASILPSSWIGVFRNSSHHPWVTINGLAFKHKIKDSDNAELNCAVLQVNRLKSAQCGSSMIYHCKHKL

Row | Binder | binding result
1 | B1 | binds
2 | B2 | binds
